Data from patent US20260176619A1 (published 2026).

T1: His-tagged recombinant human CD45 (human, UniProt P08575 26-577, limits assumed)
T1 construct: His-tagged
T1 sequence (looked up): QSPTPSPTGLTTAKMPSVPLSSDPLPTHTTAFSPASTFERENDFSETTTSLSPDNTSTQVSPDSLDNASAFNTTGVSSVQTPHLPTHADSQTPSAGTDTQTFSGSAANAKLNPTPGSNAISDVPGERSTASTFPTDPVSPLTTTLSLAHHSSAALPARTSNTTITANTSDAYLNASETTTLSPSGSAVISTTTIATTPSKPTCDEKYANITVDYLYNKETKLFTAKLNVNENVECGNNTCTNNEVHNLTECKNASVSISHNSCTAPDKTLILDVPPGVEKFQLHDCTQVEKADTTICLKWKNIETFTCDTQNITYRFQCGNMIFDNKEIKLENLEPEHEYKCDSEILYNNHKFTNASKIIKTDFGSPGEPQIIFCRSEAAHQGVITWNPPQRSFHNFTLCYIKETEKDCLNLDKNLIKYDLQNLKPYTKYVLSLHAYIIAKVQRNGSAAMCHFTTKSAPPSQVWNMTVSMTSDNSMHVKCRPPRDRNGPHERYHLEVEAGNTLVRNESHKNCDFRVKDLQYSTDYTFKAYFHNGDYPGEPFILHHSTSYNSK


Biological target: T1, His-tagged recombinant human CD45
Assay: assay not given; the affinity ELISA is described in Example 22
Experimental: 20 nM His-tagged recombinant human receptors: CD117, CD45, CD46, CD133, and CD135, were immobilized onto nickel coated plates overnight at 4° C. in TBS buffer. Non-bound receptors were removed with three-washes of 1×TBS-T buffer. Blocking buffer was added to each well and incubated plate for 0.5 hr at room temperature with continuous shaking of 550 rpm. The plate was washed with 1X TBS-T. Serial dilutions of candidate ligands with concentrations ranged from 2 pM to 1 μM were added to each well and incubated for 1 hr at room temperature with continuous shaking of 550 rpm. After three washes of 1X TBS-T, horseradish peroxidase (HRP) enzyme liked FLAG antibody solution (1:200) was added to each well for 1 hr at room temperature with continuous shaking of 550 rpm. Chemiluminescent substrate was added and HRP enzymic activity was measured using an […]. The data was analyzed by non-linear regression to estimate binding affinity.

Row | Kd | Binder
1 | > 10 nM | L122-CD45 scFv (scFv, Full scFv-FLAG tagged with an extra C-terminal cys residue) scFv: EVKLLESGGGLVQPGGSLKLSCAASGFDFSRYWMSWVRQAPGKGLEWIGEINPTSSTINFTPSLKDKVFISRDNAKNTLYLQMSKVRSEDTALYYCARGNYYRYGDAMDYWGQGTSVTVSSAKGGGGSGGGGSGGGGSGGGGSDIALTQSPASLAVSLGQRATISCRASKSVSTSGYSYLHWYQQKPGQPPKLLIYLASNLESGVPARFSGSGSGTDFTLNIHPVEEEDAATYYCQHSRELPFTFGSGTKLEIKGGGGSGGGGSDYKDDDDKGGGGSC
2 | > 10 nM | L111-CD45 scFv (scFv, Full scFv-FLAG tagged with an extra C-terminal cys residue; also called L11I-CD45; LIII-CD45 scFv) scFv: DIQMTQSPSFLSASVGDRVTINCKASQNINKYLDWYQQKHGEAPKLLIHYTNNLHTGIPSRFSGSGSGTDYTLTISSLQPEDVATYFCLQHSSRWTFGGGTKLELKGGGGSGGGGSGGGGSGGGGEVQLVESGGDLVQPGRSLKLSCIASGFTFTNFWMTWIRQVSGKGLEWVASISSSGGSIYYPDSVKDRFTISRDNAKNTLYLQMNSLRSEDTATYYCVKLHYYSGGGDAWGQGTSVTVSSGGGGSGGGGSDYKDDDDKGGGGSC
3 | > 10 nM | L112-CD45 scFv (scFv, Full scFv-FLAG tagged with an extra C-terminal cys residue) scFv: EVQLVESGGDLVQPGRSLKLSCVASGFTFNNYWMTWIRQVPGKGLEWVASISSSGGSIYYPDSVKDRFTISRDNAKNTLFLQMNSLRSEDTATYYCARLYYYSGGGDAWGQGTSVTVSSGGGGSGGGGSGGGGSGGGGDIQMTQSPSFLSASVGDRVTIICKASQDINKYLDWYQQKLGEAPKLLIYNTNNLHTGIPSRFSGSGSGTDYTLTISSLQPEDVATYFCLQHISRWTFGGGTKLELKGGGGSGGGGSDYKDDDDKGGGGSC
